± gives the standard deviation of the averaged measurements.
Test system: ATP
Test: switch fluorescence ratio, 500 uM ATP over buffer (Cy3 cluster intensity, sum of 5 cycles each) (fold (ratio)); higher = stronger signal-on switching upon ATP binding; sequences stand for … in TCGTCGGCAGCGTCAGATGTGTATAAGAGACAGTTTTTTTTTTTTTTTTTTTTTTTTT…TC
Settings: aptamer strand: ATP DNA aptamer (quencher-CACCTGGGGGAGTATTGCGGAGGAAGG + anchor), 100 nM annealed; ATP concentration: 500 uM
In short: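 The fluorescence ratio divides summed target-cycle Cy3 intensity by summed buffer-cycle Cy3 intensity for each cluster and is averaged per switch-domain sequence. Cy3-labelled switching-strand clusters on a modified Illumina MiSeq flow-cell were annealed to 100 nM quencher-labelled ATP aptamer, then imaged in selection buffer and again after 15 min with 500 uM ATP at 22 °C. Five such cycles were run, with NaOH stripping and re-annealing between them, and clusters outside 100-1000 RFU were excluded.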
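Further: ATP exposure 15 min at 22 °C before imaging.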

Row | Sequence | switch fluorescence ratio
1 | GGTTATACGA | 1.034 ± 0.0054
2 | ACATTATTTT | 1.02 ± 0.025
3 | GGGGTCGGGT | 0.99 ± 0.012
4 | TGCCGTTTTT | 1.02 ± 0.069
5 | TAAACCCACT | 1.24 ± 0.063
6 | ATTGTGTGGT | 1.01 ± 0.026
7 | GAGGGGCCTA | 0.968 ± 0.021
8 | AGGCGGGGGG | 1.02 ± 0.041
9 | TTACAGTGGA | 1.01 ± 0.0018
10 | TTGAGTATTT | 0.98182 ± 0.00089
11 | AGATTACTGC | 1.01 ± 0.023
12 | AGTTTTGATG | 0.9784 ± 0.0044
13 | CGGTTAGGTG | 1.06 ± 0.021
14 | TCGGGGTTTA | 0.994 ± 0.059
15 | GGCTTATAGG | 1.02 ± 0.036
16 | TACTGTGGTT | 1 ± 0.018
17 | ATCAGGAAGT | 0.992 ± 0.062
18 | GCATCCGGGA | 0.956 ± 0.039
19 | TAACAGTAGG | 1.05 ± 0.038
20 | GTTGGAGGGT | 0.977 ± 0.047
21 | GGTTCAGAGA | 0.973 ± 0.033
22 | ATTTAGCGTC | 0.99 ± 0.016
23 | CTTGGAGGCG | 1.01 ± 0.036
24 | GGGGGCAAAA | 1.03 ± 0.025
25 | GGGGCTATAA | 1.11 ± 0.067

Row | Sequence | switch fluorescence ratio
26 | TTGAGGTGCA | 0.992 ± 0.025
27 | TTGCAAAAAT | 1 ± 0.046
28 | TTCAGTTCGG | 0.9942 ± 0.0016
29 | GGCTTAAGGG | 0.972 ± 0.025
30 | GATTGACCAT | 1.041 ± 0.0099
31 | CGGGGAAATG | 0.997 ± 0.023
32 | GGATAAAATT | 0.996 ± 0.015
33 | CCGCGGGTTC | 1.55 ± 0.45
34 | GAATATTTCT | 1.02 ± 0.021
35 | CGGGGATTGC | 1.01 ± 0.016
36 | TTGGATAGGG | 1.04 ± 0.067
37 | GTTATAGGTG | 1.06 ± 0.065
38 | CGTTGTTAGT | 1.037 ± 0.0083
39 | AATTATGGTT | 1.03 ± 0.012
40 | GGGGCTCACG | 0.985 ± 0.029
41 | CCCGGGTGAT | 4 ± 0.3
42 | GATTGGGTGG | 1 ± 0.017
43 | AGTAATTTTG | 1.01 ± 0.065
44 | GAATGGGGTT | 0.98 ± 0.026
45 | TTGGGGGGCG | 1.01 ± 0.073
46 | TGTAATGCCC | 0.991 ± 0.02
47 | TGAGACTAGT | 0.989 ± 0.023
48 | TTGACTTTGA | 1.02 ± 0.016
49 | TGAAGACTGT | 0.988 ± 0.045
50 | CGATGTGCTT | 1.01 ± 0.024

Row | Sequence | switch fluorescence ratio
51 | GTGTAATTTG | 0.994 ± 0.036
52 | GATGGATAGG | 0.9804 ± 0.0043
53 | AAGGGTGTCA | 1.022 ± 0.0032
54 | GTTTAATCTT | 0.9896 ± 0.0031
55 | GGATGCAGCT | 1.12 ± 0.1
56 | CGACGAATAG | 1.29 ± 0.063
57 | GGTCAAACCC | 1.032 ± 0.0044
58 | AAGGGGTTCA | 0.991 ± 0.03
59 | TGGATTATGA | 0.955 ± 0.011
60 | GTTGGGGATT | 0.977 ± 0.016
61 | GCATGGGGAC | 1.05 ± 0.081
62 | CCGTAAGGAA | 1.06 ± 0.11
63 | CCTTTTTGTC | 1.12 ± 0.06
64 | ATTTATGTTG | 1.01 ± 0.031
65 | ACTGCGTAAA | 0.991 ± 0.041
66 | TTACTTTTTC | 1.01 ± 0.011
67 | GTAAGTGAAG | 1.05 ± 0.014
68 | CGGTTGGGTC | 1.05 ± 0.051
69 | GGATCTTGGC | 1.02 ± 0.025
70 | TCGGCTTGGC | 1.03 ± 0.086
71 | CAGTGCCTGT | 1.01 ± 0.034
72 | TTGAGTCCGT | 1.05 ± 0.075
73 | ATATTGCCTA | 1.003 ± 0.0074
74 | GCACTAGGGG | 1.09 ± 0.015
75 | CTTTGTTGGT | 0.9831 ± 0.0082

Row | Sequence | switch fluorescence ratio
76 | TTGGGCATCA | 1 ± 0.065
77 | GGGGAAAGAG | 1 ± 0.017
78 | CTTGCGGCCT | 1.11 ± 0.15
79 | GTAAGTAAAA | 1.03 ± 0.089
80 | GCTCGTTAGG | 0.995 ± 0.029
81 | TAGTAATGTG | 0.993 ± 0.022
82 | CAAGTATGAG | 0.9829 ± 0.0065
83 | GGTAGGCCTG | 0.989 ± 0.056
84 | TGTTTGAGGC | 0.997 ± 0.044
85 | TTAACTACCG | 1.042 ± 0.0084
86 | AGTAGATTGG | 0.995 ± 0.028
87 | TCTTGTAGCG | 0.986 ± 0.016
88 | GAAAGTCTGT | 1.07 ± 0.087
89 | TTAATAGTTA | 0.992 ± 0.028
90 | GAAAGGGGCC | 1.01 ± 0.066
91 | CAAGCGACGG | 1.03 ± 0.022
92 | ACGTTGGTGG | 1 ± 0.012
93 | ATTTAATACG | 1.02 ± 0.052
94 | GAAATACCTT | 0.976 ± 0.0021
95 | GCAGGCGTTG | 0.995 ± 0.013
96 | GCGACATAGG | 0.964 ± 0.042
97 | TTCGATGCGG | 1.02 ± 0.036
98 | TTTTCGGTCA | 0.976 ± 0.026
99 | TGACGGGGGA | 0.986 ± 0.021
100 | TTTACTGCCT | 1.06 ± 0.022
